Legend:
[1] = molecular target: T1, 4-1BB (coated on ELISA plate) (UniProt Q07011 24-186, limits assumed); test: ELISA on coated 4-1BB, supernatant after 45 °C 30 min, OD450
Procedure: (§1) After centrifugation, culture supernatant was collected for determination of expression and binding activity of the 4-1BBL variants. To determine expression of the 4-1BBL variants, a 96-well plate (flat bottom) was coated with 2 μg/ml anti-His tag antibody overnight. The pre-coated plate was then blocked with 5% milk in PBS at room temperature (RT) for 1 hour. After blocking, 30 μl of bacterial supernatant was added to each well of the plate, and the plate was incubated for 1 hour at RT. After the incubation, anti-c-myc-HRP was added, and the expression level of 4-1BBL variants can be determined by measuring OD450 in a plate reader. To determine binding activity of the 4-1BBL variants, a 96-well plate (flat bottom) was coated with 0.5 μg/ml of 4-1BB overnight. The pre-coated plate was then blocked with 5% milk in PBS at RT for 1 hour. After blocking, 30μ of bacterial supernatant was added to each well of the plate, and the plate was incubated for 1 hour at RT. After the incubation, anti-c-myc-HRP was added, and the 4-1BB-binding activity of 4-1BBL variants can be determined by measuring OD450 in a plate reader.

[2] = molecular target: T1, 4-1BB (coated on ELISA plate); test: ELISA, binding OD450 / expression OD450
Procedure: as §1
(§2) The 4-1BB-binding activity was measured using the same methods described above. With respect to 4-1BB-mediated NF-κB reporter activity, a 96-well plate (flat bottom) was coated with 5 μg/ml anti-c-myc antibody at 4° C. overnight. The induced 4-1BBL variant supernatants were added to the pre-coated plate, and the plate was incubated at 37° C. for 2 hours. The above steps were repeated for six times. Afterwards, 1×10⁵/well of transfected NF-κB Jurkat cells expressing 4-1BB was added to the plate, which was then incubated for 5 hours at 37° C. After the incubation, the luminance signal was detected to determine the 4-1BB reporter activity.

[3] = molecular target: T1, 4-1BB (coated on ELISA plate); test: ELISA on coated 4-1BB, supernatant, OD450
Procedure: as §1

[4] = molecular target: T1, 4-1BB (coated on ELISA plate); test: ELISA, binding/expression ratio relative to WT
Procedure: as §1, §2

[5] = molecular target: T1, 4-1BB (coated on ELISA plate); test: ELISA, binding OD450 / expression OD450; remark: listed apart in the source
Procedure: as §1

[6] = molecular target: 4-1BB on transfected NF-κB Jurkat cells (UniProt Q07011 24-255, limits assumed); test: cell-based or functional assay
[7] = molecular target: T1, 4-1BB (coated on ELISA plate); test: ELISA on coated 4-1BB, supernatant
Procedure: as §1, §2

[8] = molecular target: T1, 4-1BB (coated on ELISA plate); test: ELISA, binding OD450 / expression OD450, after 45 °C 30 min
Procedure: as §1

Sequence of 4-1BB on transfected NF-κB Jurkat cells (Q07011 24-255 limits assumed): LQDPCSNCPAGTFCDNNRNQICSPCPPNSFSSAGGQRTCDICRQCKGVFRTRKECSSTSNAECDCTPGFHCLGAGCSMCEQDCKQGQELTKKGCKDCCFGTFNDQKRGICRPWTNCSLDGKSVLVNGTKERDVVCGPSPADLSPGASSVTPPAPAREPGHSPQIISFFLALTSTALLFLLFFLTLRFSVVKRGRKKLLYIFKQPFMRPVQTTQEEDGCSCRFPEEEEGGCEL

Binder | Binding (45 °C) [1] | Binding/Expression ratio [2] | Binding (25 °C) [3] | Binding (vs wt) [4] | Binding / Expression ratio (25 degrees) [5] | Reporter (RLU) [6] | Reporter (vs wt) [6] | Reporter/Expression ratio [6] | Binding (OD450) [7] | Binding / Expression ratio (45degrees) [8]
1D2 (ligand, also called 4-1BBL variant 1D2 (phagemid clone, bacterial supernatant)) 4-1BBL variant: ACPWAVSGARASPGSAASPRLREGPELSPDDPAGLLDLRQGMFAQLVAQNVLLIDGPLSWYEDPGLAGVSLTGGLSYKEDTKELVVAKAGVYYVFFQLELRRVVAGTGSGSVSLALHLQPLRSAAGAAALALTVDLPPASSEARNSAFGFQGRLLHLSAGQRLGVHLHTEARARHALQLTQGATVLGLFRVTPEIPAGLPSPRSE | 0.803 | 0.66 | 1.16 | 0.38 | 0.525 | 4390 RLU | 0.75 | 2150 | 1.35 OD450 | 0.553
4C2 (ligand, also called 4-1BBL variant 4C2 (phagemid clone, bacterial supernatant)) 4-1BBL variant: ACPWAVSGARASPGSAASPRLREGPELSPDDPAGLLDLRQGMFAQLVAQNVLLIDGPLSWYPDPGLAGVSLTGGLSYKEDTKELVVAKAGVYYVFFQLELRRVVAGRGSGSVSLALHLQPLRSAAGAAALALTVDLPPASSEARNSAFGFQGRLLHLSAGQRLGVHLHTEARARHAWQFTQGATVLGLFRVTPEIPAGLPSPRSE | 0.823 | 0.67 | 0.657 | 0.38 | 0.431 | 3420 RLU | 0.71 | 2040 | 1.12 OD450 | 0.506
4E10 (ligand, also called 4-1BBL variant 4E10 (phagemid clone, bacterial supernatant)) 4-1BBL variant: ACPWAVSGARASPGSAASPRLREGPELSPDDPAGLLDLRQGMFAQLVAQNVLLIDGPLSWYPDPGLAGVSLTGGLSYKEDTKELVVAKAGVYYVFFQLELRRVVAREGSGSVSLALHLQPLRSAAGAAALALTVDLPPASSEARNSAFGFQGRLLHLSAGQRLGVHLHTEARARHAMQLTQGATVLGLFRVTPEIPAGLPSPRSE | 1.25 | 1.04 | 1.36 | 0.6 | 0.679 | 7360 RLU | 2.74 | 7830 | 0.975 OD450 | 0.885
5D9 (ligand, also called 4-1BBL variant 5D9 (phagemid clone, bacterial supernatant)) 4-1BBL variant: ACPWAVSGARASPGSAASPRLREGPELSPDDPAGLLDLRQGMFAQLVAQNVLLIDGPLSFYSDPGLAGVSLTGGLSYKEDTKELVVAKAGVYYVFFQLELRRVVAGTGSGSVSLALHLQPLRSAAGAAALALTVDLPPASSEARNSAFGFQGRLLHLSAGQRLGVHLHTEARARHAWQMTQGATVLGLFRVTPEIPAGLPSPRSE | 0.205 | 1.75 | 1.43 | 1.01 | 1.53 | 4780 RLU | 1.48 | 4240 | 1.98 OD450 | 0.537
8B10 (ligand, also called 4-1BBL variant 8B10 (phagemid clone, bacterial supernatant)) 4-1BBL variant: ACPWAVSGARASPGSAASPRLREGPELSPDDPAGLLDLRQGMFAQLVAQNVLLIDGPLSWYTDPGLAGVSLTGGLSYKEDTKELVVAKAGVYYVFFQLELRRVVAGMGSGSVSLALHLQPLRSAAGAAALALTVDLPPASSEARNSAFGFQGRLLHLSAGQRLGVHLHTEARARHSWQLTQGATVLGLFRVTPEIPAGLPSPRSE | 0.182 | 2.65 | 1.5 | 1.52 | 1.79 | 8820 RLU | 4.66 | 13300 | 1.75 OD450 | 0.636
8E2 (ligand, also called 4-1BBL variant 8E2 (phagemid clone, bacterial supernatant)) 4-1BBL variant: ACPWAVSGARASPGSAASPRLREGPELSPDDPAGLLDLRQGMFAQLVAQNVLLIDGPLSWYPDPGLAGVSLTGGLSYKEDTKELVVAKAGVYYVFFQLELRRVVAFEGSGSVSLALHLQPLRSAAGAAALALTVDLPPASSEARNSAFGFQGRLLHLSAGQRLGVHLHTEARARHSWQLTQGATVLGLFRVTPEIPAGLPSPRSE | 0.309 | 0.21 | 0.231 | 0.12 | 0.188 | 4880 RLU | 0.9 | 2570 | 0.392 OD450 | 0.388
